# Experimental data reported in patent US20260001928A1 (CORTERIA PHARMACEUTICALS, priority 2022, published 2026).
# *1 amine or outer side, *2 acyl side, *3 side chain or, on linkers, in order; H or OH if unused. Where no end group is shown, it is not given here. Side-chain parts run from the residue outwards. [ ]: non-standard residue; d: D form. The star is where a group is joined. C18 diacid = O=C(O)CCCCCCCCCCCCCCCCC(=O)*; C16 diacid = O=C(O)CCCCCCCCCCCCCCC(=O)*; γGlu = O=C(O)[C@H](CCC(=O)[*:2])N[*:1]; NMeI = CC[C@H](C)[C@H](NC)C(=O)O; αMeL = CC(C)C[C@](C)(N)C(=O)O; AEEA = NCCOCCOCC(=O)O; Aib = CC(C)(N)C(=O)O
# B1: SEQ ID NO 65 (peptide)
# peptide: [NMeI]VLSLD[dV]PIK[αMeL]K([γGlu-C16 diacid])KILLEQEKQKKQREQAETN[Aib]QILAQV-NH2
# modifications: N-terminus assumed
# SMILES: CC[C@H](C)[C@H](NC)C(=O)N[C@H](C(=O)N[C@@H](CC(C)C)C(=O)N[C@@H](CO)C(=O)N[C@@H](CC(C)C)C(=O)N[C@@H](CC(=O)O)C(=O)N[C@@H](C(=O)N1CCC[C@H]1C(=O)N[C@H](C(=O)N[C@@H](CCCCN)C(=O)N[C@@](C)(CC(C)C)C(=O)N[C@@H](CCCCNC(=O)CC[C@H](NC(=O)CCCCCCCCCCCCCCC(=O)O)C(=O)O)C(=O)N[C@@H](CCCCN)C(=O)N[C@H](C(=O)N[C@@H](CC(C)C)C(=O)N[C@@H](CC(C)C)C(=O)N[C@@H](CCC(=O)O)C(=O)N[C@@H](CCC(N)=O)C(=O)N[C@@H](CCC(=O)O)C(=O)N[C@@H](CCCCN)C(=O)N[C@@H](CCC(N)=O)C(=O)N[C@@H](CCCCN)C(=O)N[C@@H](CCCCN)C(=O)N[C@@H](CCC(N)=O)C(=O)N[C@@H](CCCNC(=N)N)C(=O)N[C@@H](CCC(=O)O)C(=O)N[C@@H](CCC(N)=O)C(=O)N[C@@H](C)C(=O)N[C@@H](CCC(=O)O)C(=O)N[C@H](C(=O)N[C@@H](CC(N)=O)C(=O)NC(C)(C)C(=O)N[C@@H](CCC(N)=O)C(=O)N[C@H](C(=O)N[C@@H](CC(C)C)C(=O)N[C@@H](C)C(=O)N[C@@H](CCC(N)=O)C(=O)N[C@H](C(N)=O)C(C)C)[C@@H](C)CC)[C@@H](C)O)[C@@H](C)CC)[C@@H](C)CC)C(C)C)C(C)C
# B2: SEQ ID NO 46 (peptide)
# peptide: Ac-VLSLD[dV]PIK[αMeL]K([γGlu-C16 diacid])KILLEQEKQKKQREQAETN[Aib]QILAQV-NH2
# SMILES: CC[C@H](C)[C@H](NC(=O)[C@H](CCC(N)=O)NC(=O)C(C)(C)NC(=O)[C@H](CC(N)=O)NC(=O)[C@@H](NC(=O)[C@H](CCC(=O)O)NC(=O)[C@H](C)NC(=O)[C@H](CCC(N)=O)NC(=O)[C@H](CCC(=O)O)NC(=O)[C@H](CCCNC(=N)N)NC(=O)[C@H](CCC(N)=O)NC(=O)[C@H](CCCCN)NC(=O)[C@H](CCCCN)NC(=O)[C@H](CCC(N)=O)NC(=O)[C@H](CCCCN)NC(=O)[C@H](CCC(=O)O)NC(=O)[C@H](CCC(N)=O)NC(=O)[C@H](CCC(=O)O)NC(=O)[C@H](CC(C)C)NC(=O)[C@H](CC(C)C)NC(=O)[C@@H](NC(=O)[C@H](CCCCN)NC(=O)[C@H](CCCCNC(=O)CC[C@H](NC(=O)CCCCCCCCCCCCCCC(=O)O)C(=O)O)NC(=O)[C@](C)(CC(C)C)NC(=O)[C@H](CCCCN)NC(=O)[C@@H](NC(=O)[C@@H]1CCCN1C(=O)[C@H](NC(=O)[C@H](CC(=O)O)NC(=O)[C@H](CC(C)C)NC(=O)[C@H](CO)NC(=O)[C@H](CC(C)C)NC(=O)[C@@H](NC(C)=O)C(C)C)C(C)C)[C@@H](C)CC)[C@@H](C)CC)[C@@H](C)O)C(=O)N[C@@H](CC(C)C)C(=O)N[C@@H](C)C(=O)N[C@@H](CCC(N)=O)C(=O)N[C@H](C(N)=O)C(C)C
# B3: SEQ ID NO 53 (peptide)
# peptide: Ac-IVLSLD[dV]PIK[αMeL]K([γGlu-C16 diacid])KILLEQEKQKKQREQAETDKQILAQV-NH2
# SMILES: CC[C@H](C)[C@H](NC(C)=O)C(=O)N[C@H](C(=O)N[C@@H](CC(C)C)C(=O)N[C@@H](CO)C(=O)N[C@@H](CC(C)C)C(=O)N[C@@H](CC(=O)O)C(=O)N[C@@H](C(=O)N1CCC[C@H]1C(=O)N[C@H](C(=O)N[C@@H](CCCCN)C(=O)N[C@@](C)(CC(C)C)C(=O)N[C@@H](CCCCNC(=O)CC[C@H](NC(=O)CCCCCCCCCCCCCCC(=O)O)C(=O)O)C(=O)N[C@@H](CCCCN)C(=O)N[C@H](C(=O)N[C@@H](CC(C)C)C(=O)N[C@@H](CC(C)C)C(=O)N[C@@H](CCC(=O)O)C(=O)N[C@@H](CCC(N)=O)C(=O)N[C@@H](CCC(=O)O)C(=O)N[C@@H](CCCCN)C(=O)N[C@@H](CCC(N)=O)C(=O)N[C@@H](CCCCN)C(=O)N[C@@H](CCCCN)C(=O)N[C@@H](CCC(N)=O)C(=O)N[C@@H](CCCNC(=N)N)C(=O)N[C@@H](CCC(=O)O)C(=O)N[C@@H](CCC(N)=O)C(=O)N[C@@H](C)C(=O)N[C@@H](CCC(=O)O)C(=O)N[C@H](C(=O)N[C@@H](CC(=O)O)C(=O)N[C@@H](CCCCN)C(=O)N[C@@H](CCC(N)=O)C(=O)N[C@H](C(=O)N[C@@H](CC(C)C)C(=O)N[C@@H](C)C(=O)N[C@@H](CCC(N)=O)C(=O)N[C@H](C(N)=O)C(C)C)[C@@H](C)CC)[C@@H](C)O)[C@@H](C)CC)[C@@H](C)CC)C(C)C)C(C)C
# B4: SEQ ID NO 110 (peptide)
# peptide: Ac-IVLSLD[dV]PIK[αMeL]K([AEEA-AEEA-γGlu-C18 diacid])KILLEQEKQKKQREQAETN[Aib]QILAQV-NH2
# SMILES: CC[C@H](C)[C@H](NC(C)=O)C(=O)N[C@H](C(=O)N[C@@H](CC(C)C)C(=O)N[C@@H](CO)C(=O)N[C@@H](CC(C)C)C(=O)N[C@@H](CC(=O)O)C(=O)N[C@@H](C(=O)N1CCC[C@H]1C(=O)N[C@H](C(=O)N[C@@H](CCCCN)C(=O)N[C@@](C)(CC(C)C)C(=O)N[C@@H](CCCCNC(=O)COCCOCCNC(=O)COCCOCCNC(=O)CC[C@H](NC(=O)CCCCCCCCCCCCCCCCC(=O)O)C(=O)O)C(=O)N[C@@H](CCCCN)C(=O)N[C@H](C(=O)N[C@@H](CC(C)C)C(=O)N[C@@H](CC(C)C)C(=O)N[C@@H](CCC(=O)O)C(=O)N[C@@H](CCC(N)=O)C(=O)N[C@@H](CCC(=O)O)C(=O)N[C@@H](CCCCN)C(=O)N[C@@H](CCC(N)=O)C(=O)N[C@@H](CCCCN)C(=O)N[C@@H](CCCCN)C(=O)N[C@@H](CCC(N)=O)C(=O)N[C@@H](CCCNC(=N)N)C(=O)N[C@@H](CCC(=O)O)C(=O)N[C@@H](CCC(N)=O)C(=O)N[C@@H](C)C(=O)N[C@@H](CCC(=O)O)C(=O)N[C@H](C(=O)N[C@@H](CC(N)=O)C(=O)NC(C)(C)C(=O)N[C@@H](CCC(N)=O)C(=O)N[C@H](C(=O)N[C@@H](CC(C)C)C(=O)N[C@@H](C)C(=O)N[C@@H](CCC(N)=O)C(=O)N[C@H](C(N)=O)C(C)C)[C@@H](C)CC)[C@@H](C)O)[C@@H](C)CC)[C@@H](C)CC)C(C)C)C(C)C
# B5: SEQ ID NO 67 (peptide)
# peptide: [NMeI]VLSLD[dV]PIK[αMeL]K([γGlu-C16 diacid])KILLEQEKQKKQREQAETNVQILAQV-NH2
# modifications: N-terminus assumed
# SMILES: CC[C@H](C)[C@H](NC)C(=O)N[C@H](C(=O)N[C@@H](CC(C)C)C(=O)N[C@@H](CO)C(=O)N[C@@H](CC(C)C)C(=O)N[C@@H](CC(=O)O)C(=O)N[C@@H](C(=O)N1CCC[C@H]1C(=O)N[C@H](C(=O)N[C@@H](CCCCN)C(=O)N[C@@](C)(CC(C)C)C(=O)N[C@@H](CCCCNC(=O)CC[C@H](NC(=O)CCCCCCCCCCCCCCC(=O)O)C(=O)O)C(=O)N[C@@H](CCCCN)C(=O)N[C@H](C(=O)N[C@@H](CC(C)C)C(=O)N[C@@H](CC(C)C)C(=O)N[C@@H](CCC(=O)O)C(=O)N[C@@H](CCC(N)=O)C(=O)N[C@@H](CCC(=O)O)C(=O)N[C@@H](CCCCN)C(=O)N[C@@H](CCC(N)=O)C(=O)N[C@@H](CCCCN)C(=O)N[C@@H](CCCCN)C(=O)N[C@@H](CCC(N)=O)C(=O)N[C@@H](CCCNC(=N)N)C(=O)N[C@@H](CCC(=O)O)C(=O)N[C@@H](CCC(N)=O)C(=O)N[C@@H](C)C(=O)N[C@@H](CCC(=O)O)C(=O)N[C@H](C(=O)N[C@@H](CC(N)=O)C(=O)N[C@H](C(=O)N[C@@H](CCC(N)=O)C(=O)N[C@H](C(=O)N[C@@H](CC(C)C)C(=O)N[C@@H](C)C(=O)N[C@@H](CCC(N)=O)C(=O)N[C@H](C(N)=O)C(C)C)[C@@H](C)CC)C(C)C)[C@@H](C)O)[C@@H](C)CC)[C@@H](C)CC)C(C)C)C(C)C
# B6: SEQ ID NO 125 (peptide)
# peptide: Ac-IVLSLD[dV]PIKLK([γGlu-C18 diacid])KILLEQEKQKKQREQAETN[Aib]QILAQV-NH2
# SMILES: CC[C@H](C)[C@H](NC(C)=O)C(=O)N[C@H](C(=O)N[C@@H](CC(C)C)C(=O)N[C@@H](CO)C(=O)N[C@@H](CC(C)C)C(=O)N[C@@H](CC(=O)O)C(=O)N[C@@H](C(=O)N1CCC[C@H]1C(=O)N[C@H](C(=O)N[C@@H](CCCCN)C(=O)N[C@@H](CC(C)C)C(=O)N[C@@H](CCCCNC(=O)CC[C@H](NC(=O)CCCCCCCCCCCCCCCCC(=O)O)C(=O)O)C(=O)N[C@@H](CCCCN)C(=O)N[C@H](C(=O)N[C@@H](CC(C)C)C(=O)N[C@@H](CC(C)C)C(=O)N[C@@H](CCC(=O)O)C(=O)N[C@@H](CCC(N)=O)C(=O)N[C@@H](CCC(=O)O)C(=O)N[C@@H](CCCCN)C(=O)N[C@@H](CCC(N)=O)C(=O)N[C@@H](CCCCN)C(=O)N[C@@H](CCCCN)C(=O)N[C@@H](CCC(N)=O)C(=O)N[C@@H](CCCNC(=N)N)C(=O)N[C@@H](CCC(=O)O)C(=O)N[C@@H](CCC(N)=O)C(=O)N[C@@H](C)C(=O)N[C@@H](CCC(=O)O)C(=O)N[C@H](C(=O)N[C@@H](CC(N)=O)C(=O)NC(C)(C)C(=O)N[C@@H](CCC(N)=O)C(=O)N[C@H](C(=O)N[C@@H](CC(C)C)C(=O)N[C@@H](C)C(=O)N[C@@H](CCC(N)=O)C(=O)N[C@H](C(N)=O)C(C)C)[C@@H](C)CC)[C@@H](C)O)[C@@H](C)CC)[C@@H](C)CC)C(C)C)C(C)C
# Tests used:
# [1] = target: human corticotropin-releasing factor 2a (CRF2a receptor) (human), Q13324; experiment: cell-based or functional assay
# human corticotropin-releasing factor 2a (CRF2a receptor) (human), Q13324, sequence (Q13324 20-411): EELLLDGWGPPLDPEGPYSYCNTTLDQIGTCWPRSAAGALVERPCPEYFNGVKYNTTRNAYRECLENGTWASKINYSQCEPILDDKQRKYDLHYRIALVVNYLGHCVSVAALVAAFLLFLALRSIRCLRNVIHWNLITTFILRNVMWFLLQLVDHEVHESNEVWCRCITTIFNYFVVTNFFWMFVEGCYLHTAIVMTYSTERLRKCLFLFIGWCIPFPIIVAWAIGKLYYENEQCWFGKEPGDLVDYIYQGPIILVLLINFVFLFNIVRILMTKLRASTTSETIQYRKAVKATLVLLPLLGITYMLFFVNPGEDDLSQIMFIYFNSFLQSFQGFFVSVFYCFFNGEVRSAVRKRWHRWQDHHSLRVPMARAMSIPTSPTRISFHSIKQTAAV
# CRF1R receptor = target: T1, CRF1R receptor (UniProt P34998 24-415, limits assumed); experiment: cell-based or functional assay
# T1 sequence (looked up): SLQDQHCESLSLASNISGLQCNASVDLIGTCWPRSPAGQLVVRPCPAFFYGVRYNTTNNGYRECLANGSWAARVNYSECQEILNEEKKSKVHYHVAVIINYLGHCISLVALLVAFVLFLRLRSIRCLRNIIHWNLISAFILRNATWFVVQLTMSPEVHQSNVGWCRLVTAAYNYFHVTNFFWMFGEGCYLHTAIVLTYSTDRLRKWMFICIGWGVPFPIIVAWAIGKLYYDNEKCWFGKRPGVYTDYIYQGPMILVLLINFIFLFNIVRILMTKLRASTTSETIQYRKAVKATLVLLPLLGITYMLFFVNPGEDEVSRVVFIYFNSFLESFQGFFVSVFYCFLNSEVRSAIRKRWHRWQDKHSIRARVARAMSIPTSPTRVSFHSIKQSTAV
EC50 [nM] (cAMP) [1],Emax (% I) (CRF1R receptor),Binder
0.1 nM,10%,B1
0.7 nM,6%,B2
8.05 nM,5%,B3
0.3 nM,9%,B4
0.34 nM,8%,B5
0.15 nM,18%,B6
